Measurements: patent US20210063414A1, “METHODS FOR PREVENTING AND/OR TREATING BONE LOSS CONDITIONS BY MODULATING IRISIN” (Dana-Farber Cancer Institute, Inc., priority 2018, published 2021)

Biological target: T1, MLO-Y4 cell surface proteins (Mus musculus, UniProt E9Q9D8)
T1 construct: endogenous in cells; host or cells: MLO-Y4
T1 sequence (E9Q9D8 1-996): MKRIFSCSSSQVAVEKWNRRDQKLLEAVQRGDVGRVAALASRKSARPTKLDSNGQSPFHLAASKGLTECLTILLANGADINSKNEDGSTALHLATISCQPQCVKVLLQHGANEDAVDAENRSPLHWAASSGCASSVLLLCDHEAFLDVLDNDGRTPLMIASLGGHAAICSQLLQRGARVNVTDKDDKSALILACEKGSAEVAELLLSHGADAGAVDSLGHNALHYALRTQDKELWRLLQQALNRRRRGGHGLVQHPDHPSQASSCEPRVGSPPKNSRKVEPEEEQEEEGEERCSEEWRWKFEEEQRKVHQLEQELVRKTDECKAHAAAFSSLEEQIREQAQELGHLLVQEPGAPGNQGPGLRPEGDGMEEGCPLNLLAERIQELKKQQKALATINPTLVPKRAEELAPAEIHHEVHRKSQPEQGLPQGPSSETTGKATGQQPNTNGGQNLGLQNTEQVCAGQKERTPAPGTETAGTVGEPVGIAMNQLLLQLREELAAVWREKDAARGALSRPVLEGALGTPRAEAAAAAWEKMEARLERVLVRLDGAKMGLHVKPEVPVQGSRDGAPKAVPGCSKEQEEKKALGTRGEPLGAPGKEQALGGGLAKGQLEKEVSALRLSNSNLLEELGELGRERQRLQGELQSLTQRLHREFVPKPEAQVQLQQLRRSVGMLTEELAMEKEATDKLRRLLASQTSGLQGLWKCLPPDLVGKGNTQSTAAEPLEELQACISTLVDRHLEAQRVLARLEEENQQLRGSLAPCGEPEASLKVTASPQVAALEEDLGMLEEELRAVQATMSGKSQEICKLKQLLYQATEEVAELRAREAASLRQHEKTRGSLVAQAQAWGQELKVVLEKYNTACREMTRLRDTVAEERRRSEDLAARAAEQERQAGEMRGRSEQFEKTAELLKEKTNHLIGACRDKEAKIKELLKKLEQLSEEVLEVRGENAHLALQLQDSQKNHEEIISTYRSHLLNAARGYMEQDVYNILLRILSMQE
Test: Crosslinking/co-immunoprecipitation/mass spectrometry (TMT quantitative proteomics) to identify irisin receptors
Type: binding
Details: co-precipitated protein Ankrd35 (E9Q9D8_MOUSE)
Experimental: MLO-Y4 cells were seeded on 30×150 mm type-I collagen coated dishes as described in cell culture experiment. At 60% cell density, medium was switched to FreeStyle™ 293 Expression medium. After 4 hours incubation, the cells were chilled on ice for 10 minutes, followed by treatment of 10 nM his-tag irisin or his-tag adipsin for 20 minutes. The cells were then incubated with 1.5 mM DTSSP for 30 minutes on ice to do cross-linking, after washing with 15 ml cold PBS twice. The cross-linking was quenched by addition of a final concentration of 20 mM Tris-pH 7.5. The cells were then harvested and homogenized in 1 ml RIPA buffer containing proteaseinhibitor cocktailand phosphatase-inhibitor cocktail. Whole-cell lysates were homogenized by 10 times passages through a 22G needle fitted to a 3 ml syringe. Homogenized samples were rotated gently in cold room for 20 minutes followed by 15,000×g centrifugation for 10 minutes. After addition of a final concentration of 10 mM imidazole, supernatants were incubated with 100 μl Ni-NTA agarose for 1 hour. After centrifugation at 500×g for 1 minute, the supernatants were aspirated and 1 ml cold RIPA buffer containing 10 mM imidazole were added to the agarose. After 10 minutes rotation in cold room, the supernatants were aspirated and 1 ml cold RIPA buffer containing 30 mM imidazole were added to the agarose. After repeating the washing 3 times, 0.8 ml RIPA buffer containing 250 mM imidazole was added and the agarose was gently rotated in a cold room for 20 minutes. After centrifugation at 1000×g for 2 minutes, the supernatants were transferred to 1.5 ml tube and incubated with 100 μl 0.2% sodium deoxycholate and 100 μl 10% trichloroacetic acid in ice for 1 hour. After centrifugation at 12,000×g for 10 minutes at 4° C., the supernatants were removed and 1 ml cold acetone was added to the pellets followed by vortexing for 10 seconds. After one more washing with cold acetone, the pellets were dried at 37° C., and 39 μl PBS and 13 μl 4×NuPAGE LDS were added to the pellets with a final concentration of 5 mM DTT. Solubilized proteins were incubated at 65° C. for 20 minutes followed by incubation with a final concentration of 14 mM iodoacetamide for 45 minutes in the dark. 38 μl samples were loaded to 4-12% gradient SDS-PAGE for separation followed by Coomassie Blue staining. The gels were submitted to quantitative proteomics.
For in-gel digestions, gels were stained with Coomassie Blue and were excised into 8 equal segments for control and irisin lanes. Gel pieces were destained and dehydrated with 100% acetonitrile, vacuumed dried, and digested in 25 mM HEPES (pH 8.5) with 500 ng sequencing grade trypsin (Promega) and incubated for an overnight at 37° C. (Shevchenko et al. (1996) Anal. Chem. 68:850-858). Digests were treated with 1% formic acid and purified using C18 Stage-Tips as previously described (Rappsilber et al. (2007) Nat. Protoc. 2:1896-1906). Peptides were eluted with 70% acetonitrile and 1% formic acid, then dried using a speedvac. Isobaric labeling of digested peptides was accomplished using 6-plex tandem mass tag (TMT) reagents (Thermo Fisher Scientific, Rockford, Ill.). Reagents, 5.0 mg, were dissolved in 252 μl acetonitrile (ACN) and 5 μl of the solution was added to the digested peptides dissolved in 25 μl of 200 mM HEPES, pH 8.5. After 1 hour at room temperature, the reaction was quenched by adding 1 μl of 5% hydroxylamine. Labeled peptides were combined and acidified prior to C18 Stage-Tips desalting.
All LC-MS/MS experiments were performed on an Orbitrap Fusion™ Lumos mass spectrometer (Thermo Fisher Scientific, San Jose, Calif., USA) coupled with a Proxeon EASY-nLC™ 1200 LC pump (Thermo Fisher Scientific). Peptides were separated on a 100 μm inner diameter microcapillary column packed with 35 cm of Accucore™ C18 resin (1.8 μm, 100 Å, Thermo Fisher Scientific). […]

B1: irisin: secreted cleaved form of FNDC5; recombinant human/mouse irisin with C-terminal his tag produced in HEK293 cells (protein)
chain: DSPSAPVNVTVRHLKANSAVVSWDVLEDEVVIGFAISQQKKDVRMLRFIQEVNTTTRSCALWDLEEDTEYIVHVQAISIQGQSPASEPVLFKTPREAEKMASKNKDEVTMKE
modifications: left off: small tags and cut ends
notes: secreted cleaved form of FNDC5; recombinant human/mouse irisin with C-terminal his tag produced in HEK293 cells
For B1, the TMT signal-to-noise ratio was 3.32 and the “irisin/adipsin TMT signal-to-noise ratio” value was 0.011.
